Experimental data taken from US20240374644A1.

Molecular target: CD8 on peripheral blood mononuclear cells (human)
Test: flow cytometry on PBMCs, anti-GST antibody

Chain of CD8 on peripheral blood mononuclear cells (human) (P01732 22-235, chain 1 of 2): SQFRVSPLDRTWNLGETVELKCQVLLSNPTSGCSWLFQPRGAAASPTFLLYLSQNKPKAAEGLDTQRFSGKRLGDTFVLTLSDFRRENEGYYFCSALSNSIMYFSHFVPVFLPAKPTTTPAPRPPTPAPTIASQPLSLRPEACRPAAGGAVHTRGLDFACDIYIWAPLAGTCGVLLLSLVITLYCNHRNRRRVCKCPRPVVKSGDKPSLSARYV
Chain of CD8 on peripheral blood mononuclear cells (human) (P10966 22-210, chain 2 of 2, further chain): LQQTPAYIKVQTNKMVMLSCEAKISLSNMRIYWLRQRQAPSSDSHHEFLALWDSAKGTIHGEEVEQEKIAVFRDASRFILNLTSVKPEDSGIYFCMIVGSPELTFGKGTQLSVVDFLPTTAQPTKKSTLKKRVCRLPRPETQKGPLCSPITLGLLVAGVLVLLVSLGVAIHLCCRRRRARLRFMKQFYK

percentage of peripheral blood mononuclear cells positive (anti-GST): 48.8 to 55.2%
Substance: CD8 BiTE (K8Bi), anti-HERV-K 6H5 scFv linked to anti-CD8 (OKT8) scFv (bispecific antibody)
